Experimental data as given in US20040009174A1.
Values joined by “and” are separate entries in the source; they are usually repeats but may differ in a detail not shown here. Equal entries are not always repeated.

Assays:
[1] = biological target: human CD40 (human) (UniProt P25942); assay: cell-based or functional assay
[2] = biological target: human OX40 ligand (OX40L) (human) (UniProt P23510); assay: cell-based or functional assay
Sequence of UniProt P23510 (P23510 whole entry): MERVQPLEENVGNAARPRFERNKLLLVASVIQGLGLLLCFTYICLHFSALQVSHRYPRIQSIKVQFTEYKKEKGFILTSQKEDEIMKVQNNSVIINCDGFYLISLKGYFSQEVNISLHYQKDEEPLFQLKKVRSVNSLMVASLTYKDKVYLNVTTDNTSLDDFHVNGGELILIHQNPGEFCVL

Sequence of UniProt P25942 (P25942 21-277): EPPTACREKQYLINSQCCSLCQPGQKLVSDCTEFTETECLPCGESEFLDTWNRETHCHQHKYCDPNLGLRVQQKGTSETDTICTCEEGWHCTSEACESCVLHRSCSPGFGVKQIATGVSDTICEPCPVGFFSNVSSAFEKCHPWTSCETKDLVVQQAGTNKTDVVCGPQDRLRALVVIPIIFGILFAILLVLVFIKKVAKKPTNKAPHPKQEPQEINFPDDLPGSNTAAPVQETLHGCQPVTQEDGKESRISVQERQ

IL-6 production by HASM cells (ELISA), 1 ug/ml [1] | IL-6 production by HASM cells (ELISA), 1 ug/ml [2] | PKCβ2 in membrane fraction (Western blot), HASM cells [2] [fold] | Molecule
2 fold and 3 fold | – | – | recombinant human soluble CD40L (from UniProt P29965 116-261) (ligand)
– | 2 fold and 3 fold | 3 | Soluble human recombinant OX40 [CD134]:Fc (Fc fusion, UniProt P43489 29-220, looked up, not shown: a dimerising Fc or GST) LHCVGDTYPSNDRCCHECRPGNGMVSRCSRSQNTVCRPCGPGFYNDVVSSKPCKPCTWCNLRSGSERKQLCTATQDTVCRCRAGTQPLDSYKPGVDCAPCPPGHFSPGDNQACKPWTNCTLAGKHTLQPASNSSDAICEDRDPPATQPQETQGPPARPITVQPTEAWPRTSQGPSTRPVEVPGGRAVAAILG
